# Data reported in article PMC3859839.
# Where two headings read alike, the source gives them in different places.
# B1: PsaO (psaBCA operator) (dsDNA)
# DNA 1: TTCAAAAATTAACTTGACTTAATTTTTTTT
# DNA 2: AAAAAAAATTAAGTCAAGTTAATTTTTGAA
# Legend:
# Assay in all cases: fluorescence anisotropy
# PsaR wild-type [1] = biological target: T1, PsaR wild-type (Streptococcus pneumoniae D39, UniProt A0A0H2ZQ59 1-216)
# PsaR wild-type [2] = biological target: T1, PsaR wild-type; remark: listed apart in the source
# PsaR H76A = PsaR H76A (Streptococcus pneumoniae D39, UniProt A0A0H2ZQ59 1-216, H76A)
# PsaR wild-type [3] = biological target: T1, PsaR wild-type; remark: listed apart in the source
# PsaR H76F = PsaR H76F (Streptococcus pneumoniae D39, UniProt A0A0H2ZQ59 1-216, H76F)
# PsaR H125A = PsaR H125A (Streptococcus pneumoniae D39, UniProt A0A0H2ZQ59 1-216, H125A)
# PsaR D160A = PsaR D160A (Streptococcus pneumoniae D39, UniProt A0A0H2ZQ59 1-216, D160A)
# PsaR D7A = PsaR D7A (Streptococcus pneumoniae D39, UniProt A0A0H2ZQ59 1-216, D7A)
# PsaR E99A = PsaR E99A (Streptococcus pneumoniae D39, UniProt A0A0H2ZQ59 1-216, E99A)
binder,measurement,setting,value
B1,Ka,PsaR wild-type [1],10.1 ± 0.1 log10 M-1
same,Ka,PsaR wild-type [2],8.02 ± 0.03 log10 M-1
same,Ka,PsaR H76A,9.6 ± 0.1 log10 M-1
same,Ka,PsaR wild-type [3],10.6 ± 0.1 log10 M-1
same,Ka,PsaR H76F,8.54 ± 0.06 log10 M-1
same,Ka,PsaR H125A,10.4 ± 0.1 log10 M-1
same,Ka,PsaR D160A,9.8 ± 0.1 log10 M-1
same,Ka,PsaR D7A,7.22 ± 0.03 log10 M-1
same,Ka,PsaR E99A,9.27 ± 0.05 log10 M-1
